Measurements as given in patent US7482004B2, “Inhibitors of placental growth factor for the treatment of pathological angiogenesis, pathological arteriogenesis, inflammation, tumor formation and/or vascular leakage” (Vlaams Interuniversitair Instituut voor Biotechnologie vzw, priority 2000, dated 2009).
Marks after values point to notes of the source that are not given here.

Key:
[1] = test system: PLGF^+/+ endothelial cells; test: Endothelial proliferation, PLGF+/+ cells; type: cell-based, mouse
Source text: (§1) Proliferation and survival of endothelial cells in response to VEGF were studied. […] PIGF was also found to modulate the mitogenic response to VEGF of smooth muscle cells, known to express VEGFR-1 and VEGFR-2 (C. L. Grosskreutz et al., 1999, Microvasc. Res. 58, 128-136). […] Thus, PIGF affected endothelial and smooth muscle cells only when they were stimulated with VEGF.
(§2) The data represent the mean±SD of nine to twelve experiments. *: p<0.05 versus control (vehicle). None of the antibodies affected baseline endothelial proliferation in the absence of VEGF (not shown). Ab: polyclonal antiserum; MoAb: monoclonal antibodies; bFGF: basic fibroblast growth factor.
(§3) Endothelial and smooth muscle cell culture: In order to obtain mouse capillary endothelial cells, anesthetized mice were injected s.c. with 500 μl of ice-cold matrigel containing bFGF (100 ng/ml) and heparin (100 μg/ml). After seven days, the matrigel pellet was dissected and enzymatically dispersed using 0.1% type II collagenase (Sigma, St. Louis, Mo.). Mouse endothelial cells were routinely cultured in T75 flasks coated with 0.1% gelatin in M131 medium supplemented with 5% MVGS (Gibco-BRL). Smooth muscle cells from mouse aorta were harvested and cultured as described (J. M. Herbert et al., 1997, FEBS Lett. 413, 401-404). […]

[2] = test system: PLGF^−/− endothelial cells; test: Endothelial proliferation, PLGF-/- cells; type: cell-based, mouse
Source text: as §1, §2, §3

[3] = test system: PIGF^+/+ mice; test: Matrigel assay, PIGF+/+ mice; type: in vivo, mouse; details: subcutaneous matrigel with 100 ng/ml factor, seven days, n=15
Source text: (§4) Since VEGF plays a role in the above-mentioned phenotypes of angiogenesis, arteriogenesis and permeability, we investigated whether PIGF determined the responsiveness to VEGF. Subcutaneous implantation of matrigel (A. Passaniti et al., 1992, Lab. Invest. 67, 519-528) supplemented with VEGF165 (VEGF165) induced a strong angiogenic response in PIGF^+/+ but not in PIGF^−/− mice (hemoglobin content: 0.28±0.02 g/dl in PIGF^+/+ mice versus 0.02±0.02 g/dl in PIGF^−/− mice; n=15; p<0.05).
(§5) In contrast, basic fibroblast growth factor (bFGF) induced a similar angiogenic response in both genotypes (hemoglobin content: 0.28±0.02 g/dl in PIGF^+/+ mice versus 0.25±0.02 g/dl in PIGF^−/− mice; n=15; p=NS). These observations were confirmed by histological analysis and immunostaining for endothelial factor VIII-related antigen.
(§6) Matrigel assay: Ingrowth of capillaries in matrigel was performed as described (A. Passaniti et al., 1992, Lab. Invest. 67, 519-528). […] After seven days, the matrigel pellet with the neovessels was dissected for analysis of neovascularization: one part was homogenized to determine the hemoglobin content determined using Drabkin's reagent (Sigma, St. Quentin Fallavier, France), whereas the other part was fixed in 1% paraformaldehyde for histological analysis.

[4] = test system: PIGF^−/− mice; test: Matrigel assay, PIGF-/- mice; type: in vivo, mouse; details: subcutaneous matrigel with 100 ng/ml factor, seven days, n=15
Source text: as §4, §5, §6

[5] = test system: PIGF^+/+ and PIGF^−/− smooth muscle cells; test: Smooth muscle cell proliferation; type: cell-based, mouse
Source text: as §1
(§7) Endothelial and smooth muscle cell culture: In order to obtain mouse capillary endothelial cells, anesthetized mice were injected s.c. with 500 μl of ice-cold matrigel containing bFGF (100 ng/ml) and heparin (100 μg/ml). After seven days, the matrigel pellet was dissected and enzymatically dispersed using 0.1% type II collagenase (Sigma, St. Louis, Mo.). Mouse endothelial cells were routinely cultured in T75 flasks coated with 0.1% gelatin in M131 medium supplemented with 5% MVGS (Gibco-BRL). Smooth muscle cells from mouse aorta were harvested and cultured as described (J. M. Herbert et al., 1997, FEBS Lett. 413, 401-404). Before stimulation, cells were starved in medium with 0.5% serum for 24 hours, after which they were stimulated with human VEGF165 and/or murine PIGF, or bFGF (all from R&D, Abingdon, UK) for 24 hours before analysis of the total cell number (proliferation) or the number of cells migrated after scrape-wounding (migration).

[6] = test system: PIGF^+/+ and PIGF^−/− endothelial cells; test: Endothelial cell migration (chemotaxis); type: cell-based, mouse; details: for chemotaxis of endothelial cells: 100 ng/ml (VEGF165, PIGF), both genotypes
Method: (§8) The reduced response of PIGF^−/− endothelial cells to VEGF was confirmed using cultured primary PIGF^−/− endothelial cells. […] Thus, PIGF determines and synergistically amplifies the response to VEGF.
as §7

[7] = test system: PIGF^+/+ and PIGF^−/− smooth muscle cells; test: Smooth muscle cell migration; type: cell-based, mouse
Method: as §8, §7

[8] = test system: PIGF^−/− fibroblasts; test: VEGF production by PIGF-/- fibroblasts; type: cell-based; details: 100 ng/ml for 48 hours
Method: (§9) Expression of VEGF by PIGF^−/− fibroblasts was increased by PIGF (VEGF production per 10^6 cells/ml/24 hours: 180±10 pg after treatment with vehicle versus 440±10 pg after treatment with 100 ng/ml PIGF for 48 hours; p<0.05 versus vehicle). Similar results were obtained for PIGF^+/+ fibroblasts (VEGF production per 10^6 cells/ml/24 hours: 200±8 pg after treatment with vehicle versus 430±5 pg after treatment with 100 ng/ml PIGF for 48 hours; p<0.05 versus vehicle).

[9] = test system: PIGF^+/+ fibroblasts; test: VEGF production by PIGF+/+ fibroblasts; type: cell-based; details: 100 ng/ml for 48 hours
Method: as §9

[10] = test system: PIGF^+/+ and PIGF^−/− endothelial cells; test: Endothelial cell survival (apoptosis by serum deprivation or TNF-α); type: cell-based, mouse
Source text: as §1, §7

[11] = PIGF added to VEGF165, PIGF^−/− endothelial cells

Molecule: bFGF: basic fibroblast growth factor
- Endothelial proliferation ([1]; 50 ng/ml): 35 ± 2*
- Endothelial proliferation ([2]; 50 ng/ml): 35 ± 5*
- hemoglobin content (angiogenic response in matrigel) [3]: 0.28 ± 0.02 g/dL
- hemoglobin content (angiogenic response in matrigel) [4]: 0.25 ± 0.02 g/dL
- smooth muscle cell proliferation [5]: comparable responses
- chemotaxis of endothelial cells [6]: both genotypes responded comparably
- migration of smooth muscle cells [7]: stimulated smooth muscle cells of both genotypes

B1: PLGF: murine Placental Growth Factor (R&D) (protein, UniProt P49764 19-158, looked up)
Placenta growth factor: VHSQGALSAGNNSTEVEVVPFNEVWGRSYCRPMEKLVYILDEYPDEVSHIFSPSCVLLSRCSGCCGDEGLHCVPIKTANITMQILKIPPNRDPHFYVEMTFSQDVLCECRPILETTKAERRKTKGKRKRSRNSQTEEPHP
- Endothelial proliferation ([1]; 100 ng/ml of each factor): 11 ± 1
- Endothelial proliferation ([2]; 100 ng/ml of each factor): 11 ± 1
- VEGF production per 10^6 cells/ml/24 hours [8]: 440±10 pg
- VEGF production per 10^6 cells/ml/24 hours [9]: 430±5 pg
- proliferation and survival response to VEGF165 [10, 11]: rescued the impaired proliferation and survival response
- mitogenic and anti-apoptotic activity ([10]; factor alone, endothelial cells of either genotype): not mitogenic nor anti-apoptotic
- smooth muscle cell proliferation [5]: ineffective by itself, restored the responsiveness of PIGF^−/− cells to VEGF
- chemotaxis of endothelial cells [6]: not chemotactic for endothelial cells of either genotype
- migration of endothelial cells in response to VEGF165 [6, 11]: completely restored the impaired migration
- migration of smooth muscle cells [7]: rescued the impaired smooth muscle cell response to VEGF
